Test results: the DeepSol protein solubility set

test: soluble on expression in E. coli; label from the status in PepcDB or PDB records

**Q.** Which “soluble on expression in E. coli” value does the source give for “MSLNIISVGVNHKTAPIEIRERIALSEVQNKELVTDLVSSGLASEAMVVSTCNRTELYVVPGMPEVNCDYLKDYIISYKNARNAVRPEHFFSRFYCGTARHLFEVSCAIDSLVLGEGQILGQVKNAYRIAAEVGTAGILLTRLCHTAFSVAKKVKTRTKLMEGAVSVSYAAVELAQKIFSNLSMKKVLLIGAGETGELAAKHMYAKNARNIVITNRTQSKAEALAEELGTNRVLPYESYKEHLHEFDIIITAVSTKEYILNAAEMQQSMAKRRLKPVIILDLGLPRNVDPEVGALQNMFLKDIDALKHIIDKNLERRRAELPKVKAIIDEELVAFGQWLNTLKVRPTIVDLQSKEGHHHHHH” here?
**A.** soluble

**Q.** With “MRIFVYGSLRQKQGNSHWMTNAQLLGDYRIDNYQLYSLGHYPGAVPGNGAVYGEVYRIDNATLAELDALRTRGGEYARQLIQTPYGSAWMYVYQRPVDGLTLIESGDWLDRNQP” as the sequence, how does the “soluble on expression in E. coli” value read?
**A.** not soluble

**Q.** Which “soluble on expression in E. coli” value does the source give for “MSLNQTDLSASSTSSTSRPLVAVTGADGFIGSHLTEDLVRAGYRVRAMAIYNSQGSYGWLDTVPGEVMEHVEVQLGDVRDAGSVRALMRDVQTVYHLAALIAIPYSYVAPRSYVETNITGTLNVLEAARDLGTGRVIHTSTSEVYGTARSVPIHESHPLQGQSPYSATKIGADKLAESYFLSFGLPVVTLRPFNTYGPRQSARAVIPTIISQLAAGRTEIKLGDLRPTRDFNYVADTARAFRAVGEAGPEVLGRTLNAGSGREISVGDTVKLIAQVMGKDVEVKQEDERLRPEGSEVMRLLADHRELQTLTGWQPQVTLEEGLKRTAEWFTDAGNLARYRVDQYTEGHHHHHH” here?
**A.** soluble

**Q.** For “MSLNNKIKPSILPGFMELLPKEQLVFNDIVSKITGVYEQNGFLPMDTPIIEKEEVLLAKSAGETEKQVYRIDNEDRKQVLRFDLTVPFSRFAAQYMSDLTFPFKRYQLGKVYRGERNQKGRYREFYQCDVDVVGNGNLSIKNDAFIINMASKALRKIGLDSYKFQISNRKILTGVLEGLNITNMQEVMILIDKYDKITEEQFLSELNKLIGEEKAKVISKVIKISGSSDEVVENLKKVEIKNEMLEKGIEEVEEVIKYLKLFGVEDSEYAINLKIIRGLDYYTGTVFETLLTGNESYGSICSGGRYDNLAQNYTENVLPGVGMSIGITRLFFVLREIGFIENYNSSLNEKYLIVPIGDTFEYCTKILNKLLVNGKSAEIYFEEGKLKKKLTYANKLDIKYVILIGEDEVTNKELVIKDMITGEQKKLNIEEIEGHHHHHH”, which “soluble on expression in E. coli” value is on record?
**A.** soluble

**Q.** For “MHAIDFKEIQEKLSDGFRPWQRSFQFWARATDIYTGYKVFQLRMNFVKDVNKHEEMWERQHELAAHKVYSMCSDLGGFFLKIAQILGKPDLAPAAWVRKLVTLCDQAPATPFDAVRVVLEKELGKSIEQVFETFDEKPLGSASIAQVQHPGVEKLMMVDIRNLQIFALYMQKTDIKFDLFSMTKEIEKQIGYEFDFKREANAMEKIRRFLYDNNRKSPVLVPRVFPNLVTRKVLVMEFMNGIPILSLGDEMAKRGINPHGKMAEAAKFNILHSLSQAYGQMILKSGFFHADPHPGNILIGKGSEASHLLELGIATVAKCKNEQQELLQLAKTMFDTEMPPGTTTLQPFSEDSSIKKISVEAFPEELFSVLRTVVLLRGLSVGIGINYSCAQHWRAMAEEALHASGRLSTG”, which “soluble on expression in E. coli” value is on record?
**A.** soluble

**Q.** With “MSLGIKMRSVVVKEPGQLNIESRPVPVPGAHEVRVKIAFAGICGSDVHIYHGHNPFAKYPRVIGHEFYGIIDAVGEQVSPARIGERVAVDPVVSCGHCYPCSVGRPNVCTQLQVIGVHRDGGFSDYACVPAKNAWRIPEAISDRQATMVEPFTIAANITAQLQPTAQDIALVYGAGPMGLTIIQALKGVYGVKQVIVVDRIAERLQMARENGADLTLDNTDQPLAEQLAQRQLAPTLVIDAACHPAILQEAILLASPAARIGILGFSGEASTLTQQSITSKEISIFSSRLNSGRFPLVIDWMEKGLIRPEALITHCMPLEQVKEAMEIFANDRKTCCKVLLQLGEGHHHHHH” as the sequence, how does the “soluble on expression in E. coli” value read?
**A.** soluble

**Q.** For “MADTVKLFPENLVTYKLLGEPDGPHYAHYDLVGGRLVVSKKCVSEAPVKKDAISV”, which “soluble on expression in E. coli” value is on record?
**A.** not soluble

**Q.** Which “soluble on expression in E. coli” value does the source give for “MSLKRFIDDHRDVHGVEPICKVLPIAPSTYYAHAARRSDPELRSARAKTDEALMPEIRRVWDENFQVYGVRQLWRQMRREQFAVARCTVQRLMKRQGLRGVIRGKAVRTTVSDAKAPCPLDHVNRQFTSDRPNALWVSDFTDVSTWQGWICVAFVIDVFARRIVGWKASPSMRTELVLDALEQALHARKPVGSERMIHHSDRGVQYVSIRYTERLAEAGLEPSVGSVSDSYDNALAETINGLCKAEVIHRKSSWRTREEVEWATLTWVDWFNNRRVLEPIGNIPPAEAEANYYLISPDLQLQHLRAYREGHHHHHH” here?
**A.** soluble

**Q.** With “MGSDKIHHHHHHMESVYLFSSGTLKRKANTICLETESGRKYIPVENVMDIKVFGEVDLNKRFLEFLSQKRIPIHFFNREGYYVGTFYPREYLNSGFLILKQAEHYINQEKRMLIAREIVSRSFQNMVDFLKKRKVRADSLTRYKKKAEEASNVSELMGIEGNAREEYYSMIDSLVSDERFRIEKRTRRPPKNFANTLISFGNSLLYTTVLSLIYQTHLDPRIGYLHETNFRRFSLNLDIAELFKPAVVDRLFLNLVNTRQINEKHFDEISEGLMLNDEGKSLFVKNYEQALRETVFHKKLNRYVSMRSLIKMELHKLEKHLIGEQVFGSEE” as the sequence, how does the “soluble on expression in E. coli” value read?
**A.** not soluble

**Q.** With “SSNAKIDQLSSDVQTLNAKVDQASNDANAARSDAQAAKDDAARANQRLDNMATKYR” as the sequence, how does the “soluble on expression in E. coli” value read?
**A.** soluble

**Q.** Which “soluble on expression in E. coli” value does the source give for “MGSDKIHHHHHHMDNDWIADYLRPRLARDNGEHLSRQLYRQLRELIGQRRLAGGSVLPASRALAQAMQLGRNTVLSAYDQLAAEGYLESRHGSGTYVCDVFTNSTSQTSHSTAPARPLSQRGQRLTASSRLPVRKLGAFVPGLPELELFPHKAWQQCLARQQRSAPLEWLHYQHQGGLPALQSALIQYLYLTRSVRCEPEQIIIAPGAQNALTLLAQLLADPGDAIWLEEPGYAGAQAAMQAAGLRCQAIRVDEQGLRPDPEAAPPRIIYVTPAHQYPTGAVMALPRRLELLAHARRHGSWIIEDDYDGEFCYASAPLAALQSLDRDGRVIYLGTFSKVMFPSLKLAYLVLPPELVDSYRRCQARLQGEGSYLQQAAVADFIAQGHFARHIRHMRELYQRRQQLLKHAADQYLGHAMSLHGGDAGMHLLAELPDGFDEWELQAAAAERLLWLRPLARHFLDTPYRNGLVLGYAGIDDHAIRPAVQQLADLLETRLK” here?
**A.** not soluble

**Q.** For “MKWSSMLKVSAISLSVFTAVSAKAQLGEPEIEDLKFGFIKLTDMAPLAVAYEKGFFEDEGLYVTLEAQANWKVLLDRVIDGELDGAHMLAGQPLGATIGVGTKAEVITAFSMDLNGNAITVSNDTWEQMKPHIPKQPDGKPVHPIKADSLKPVVDSYRDKGKSFNMGMVFPVSTHNYELRYWLAAGGIHPGFYAPDSGDNSGQLDADVLLSVTPPPQMPATMEAGTIKGYCVGEPWNQQAVFKGIGTPVVTDYEIWKNNPEKVFGVSKAWAEKNPNTHIRVVKALIRAAHWLDENSNANRQEAVKMLAKSEYVGADADVIANSMTGTFEYEKGDKRDVPDFNVFFRHNATYPYYSDAIWYLTQMRRWGQISSEKSDDWYMDVAKEVYRPDIYQQAAQALIEDGVLSKKDFPDFSAEDGFRPPQTHFIDNIVYDGREPNKYLEKFSIGLKGKDKVMAGDPLEHHHHHH”, which “soluble on expression in E. coli” value is on record?
**A.** soluble

**Q.** Which “soluble on expression in E. coli” value does the source give for “MSLQRKVFPKCQWVGVSEMKGIRPTQEDAVICYPFAPNGIHIFSVLDGHGGSKTSNFAACDLFNNLSKLEKVDENTLSGSVSATLKSLKAQHFNDGSTMALAVITPNRHIFSCHLGDSRTIVVRRDGSISHFTKDHKPDEKSEVKRVLSQHGFILKHRVMGLLAVSSSLGDFEVVGIGHQPVIREWVIDESDKWLVICCDGVFDVLTNEEVGKICQNATSASALAYDIKNIAFELLSQDNISCIAVDLENMAFSNEGHHHHHH” here?
**A.** soluble
